Source: the supplement of paper PMC10899765

What was measured:
Conditions in all cases: 20 nM; 72 h
[1] = test system: MCF10A; experiment: percent viability (nuclei count relative to siNT); higher = more viable cells
Method: (§1)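 After 72 h, cells were fixed and stained with Hoechst and anti-fibrillarin, and nucleoli per nucleus were counted with CellProfiler. Values are plate-adjusted percent effect for the one-nucleolus and 5+ nucleoli phenotypes, normalised to siNT (0%) and to the positive controls siNOL11 or siKIF11 (100%), as the mean of biological triplicates. Percent viability is the nuclei count relative to siNT.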

[2] = test system: MCF10A; experiment: 5+ nucleoli phenotype percent effect (relative to siNT 0% and siKIF11 100%); higher = more cells with five or more nucleoli
Method: as §1

[3] = test system: MCF10A; experiment: one-nucleolus phenotype percent effect (relative to siNT 0% and siNOL11 100%); higher = more cells with one nucleolus (ribosome biogenesis inhibition)
Method: as §1

| Sequence | percent viability [1] | 5+ nucleoli phenotype percent effect [2] | one-nucleolus phenotype percent effect [3] |
| --- | --- | --- | --- |
| AAGUUGGCUGCAGUUAAGGUGG [hsa-miR-4715-5p] | 22.1% | -13.4% | -2.6% |
| AGGUGCUCCAGGCUGGCUCACA [hsa-miR-3907] | 4.87% | -22.2% | 27.7% |
| CUGACUGAAUAGGUAGGGUCAUU [hsa-miR-3136-5p] | 32.7% | -32.9% | 24.8% |
| GAGGAAACUGAAGCUGAGAGGG [hsa-miR-4496] | 88.3% | 40.4% | -13.7% |
| GAGUGGAUAGGGGAGUGUGUGGA [hsa-miR-6849-5p] | 126% | 31% | -18.4% |
| GGGACUAGGAUGCAGACCUCC [hsa-miR-6503-3p] | 49.8% | -6.73% | 9.94% |
| GGUAGUGAGUUAUCAGCUAC [hsa-miR-6073] | 71% | 18.3% | 2.63% |
| AAAAGUAAUUGCGGUUUUUGC [hsa-miR-548au-5p] | 100% | 42.7% | -19.4% |
| UGGGAGCCAUGAGGGUCUGUGC [hsa-miR-6827-5p] | 15.6% | -1.65% | 26.3% |
| CUGCCCUGGCCCGAGGGACCGA [hsa-miR-874] | 62.9% | -5.29% | 4.65% |
| AGUUGCCAGGGCUGCCUUUGGU [hsa-miR-6501-5p] | 47.2% | -26.4% | 5.87% |
| CAGUGGUUUUACCCUAUGGUAG [hsa-miR-140-5p] | 61.4% | -31.4% | 20.1% |
| UUCCCUUUGUCAUCCUUCGCCU [hsa-miR-211-5p] | 75.8% | 49.7% | -7.23% |
| UGCACGGCACUGGGGACACGU [hsa-miR-3177-3p] | 20.3% | -18% | 33.1% |
| AGAAGUAACUACGGUUUUUGCA [hsa-miR-548ao-5p] | 74.5% | 27.5% | -16.5% |
| ACAGUCUGCUGAGGUUGGAGC [hsa-miR-622] | 86.2% | -4.39% | 8.72% |
| UUGGAGGCGUGGGUUUU [hsa-miR-4443] | 20.9% | -29.8% | 61.2% |
| UUAGCCAAUUGUCCAUCUUUAG [hsa-miR-4662a-5p] | 33.5% | 1.03% | 9.07% |
| AAUGCACCUGGGCAAGGAUUCA [hsa-miR-502-3p] | 38.5% | -10.4% | 0.707% |
| UACUGCAGACGUGGCAAUCAUG [hsa-miR-509-3-5p] | 26.5% | -30.4% | 26.3% |
| CUCUCUGGCCGUCUACCUUCCA [hsa-miR-3191-5p] | 31.4% | -62.4% | 46.1% |
| GUGGACCUGGCUGGGAC [hsa-miR-4535] | 65.5% | 17.4% | -11% |
| AGGUCUGCAUUCAAAUCCCCAGA [hsa-miR-6503-5p] | 43.4% | 10.7% | 3.05% |
| AAUGACACGAUCACUCCCGUUGA [hsa-miR-425-5p] | 74.9% | 16.6% | -5.83% |
| UGGUCUGUUCAUUCUCUCUUUUUGGCC [hsa-miR-7107-3p] | 15% | 0.728% | 13.2% |
| GCUGGUUUCAUAUGGUGGUUUAGA [hsa-miR-29b-1-5p] | 100% | 38.2% | -17.6% |
| AUUGUAGAACCUAAGAUUGGCC [hsa-miR-3674] | 27.9% | -29.6% | 40.2% |
| UAUUCAGGAAGGUGUUACUUAA [hsa-miR-506-5p] | 91% | -1.47% | -9.8% |
| GCACCCAGGCAAGGAUUCUG [hsa-miR-500b-3p] | 76.8% | -15.3% | 11.8% |
